From the supplement of paper PMC12636428 come the findings set out here.

The data set relates to Saccharomyces cerevisiae. Nature of the data set: transcriptional activation domain activity (GFP:mCherry ratio, weighted mean of sorted bins, harmonized to initial dataset scale) (arbitrary fluorescence ratio units); higher = stronger transcriptional activation. The conditions noted are these: beta-estradiol 1 µM; induction time 4 h. In a few lines: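 Barcoded protein tiles fused to an estradiol-inducible synthetic transcription factor were integrated at the yeast URA3 locus, in diploids carrying a GFP reporter. Cultures were diluted 1:5 into SC with 1 uM beta-estradiol, held 4 hours at 30 °C, sorted into 8 bins by GFP:mCherry ratio, and barcodes sequenced. Tiles under 50 reads were discarded. Activation activity is the read-weighted mean of bin median fluorescence, averaged across barcodes, then linearly mapped onto the initial dataset scale.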
Consider “MLIFVLIVCISLGLAMSFDSLSLHLQLHRLFCIFCVIFILFAHSFSVGLSCYI”, for which the “transcriptional activation domain activity” value was determined as 72000.
Regarding “MSASPPTGSGGTDERQRQRVTRACEPCRRKKIRCDGRKPCSACADAQAGNGCA”, the “transcriptional activation domain activity” value was found to be 34300.
In the case of “GLAELAAALDDSDVQYAYARVEYANDAESKRVKFVLIVWIGSGTKVMRKGRAG”, the “transcriptional activation domain activity” value worked out at 42200.
“AAPKAKATTAKAKATTTKKATTAKASTTKKAAAAKPKANASKPRKAAAATAAA”: the “transcriptional activation domain activity” value came to 38600.
The result for “GLGFFFSFSLFNFFLHASSLYLLFLVTLLDLHYIFLVLSLTLFRVYVCFISAP” reads 43400.
In the case of “LLRQQLVYTNHIYLYYFAIISNTLIRFIWILYIPARGPDIILRTFIAALFEML”, the “transcriptional activation domain activity” value is 54200.
With “MASLRNHAEQLNAAVYRNYKKDRKVGEGAYAVVYLGTQLSTKKVVAIKKIKVG”, the “transcriptional activation domain activity” value amounted to 49800.
The result for “KIHLVNMAQVVVIFLHRILYGIIPLFEITTCAYFPLLVSLWHLAYILFYVVMF” reads 81600.
Take “ASSAPAAASSAPDAASSAPAAASSAPAAASSAPPAAASPAASPAAGGFQLQNG”: the “transcriptional activation domain activity” value is 38200.
As for “LPGGKYLFMVMKNNGGGSEKFALVLFDVEAQMTLLKASRILLLRARYITPKTT”, the “transcriptional activation domain activity” value stood at 51400.
Turning to “FGLFGPLDFLDFLDLWTFWTFWTLNFLDFWTFGLFGLLALDLDFLDFLDFLDL”, the “transcriptional activation domain activity” value was 57800.
In the case of “MRNEYYFFTSLSCIFSVLCFVSSFFYLVFSSLVLFFFFFLTGLFYLKFFCWVF”, the “transcriptional activation domain activity” value came out at 39400.
Next, “TLGFVGFVTTLKKVTLRRQFGLFCWIHISLFLIVVSSHFIVNSILEGLIWFWL”: 74700; “RRRVNLLVCTCGMLISLIVVGGLGTTHRGGPFNKPVGITIVVFSYINIICFNF”: 45300.
Next, “GCLLPVTSCVFLAPFTLDFLWIPFLTHYLIILLCWYHLFSLRLLFCCSKSLPT”: 57200; “MVILLLFFVFRVNFVIVLAVSIPRQASFHVIHRFTYLLRRLQDMLNTTHRYAA”: 40500.
Take “MGVLFFSFLPWSFRLFFSFFFYFGLFFFFEYDFVLFLVFCVLVIGPVWLLAGC”: the “transcriptional activation domain activity” value stood at 60200.
Regarding “EAAHVNGLGIADLDVLLGLNGRSSDVDMTTTLPSLKPPLQNGEIKADSIDNLD”, the “transcriptional activation domain activity” value was 53300.
The result for “AKNLHLHILRHPSKWMKLYFYLWPLIVFYHIPLQSFFDFNAVFMLLQVARFPN” reads 50100.
Take “MFLLLKYDFSLTDLLRILLRLNMFPILLSFIMDRPYTSYTLPWLISFWYLVFF”: the “transcriptional activation domain activity” value worked out at 66500.
Regarding “TSAFGNLGSSSSTPSVFGGAGAGTNNTGSGGGGGGGFSAFAGKPTAFGAGAAG”, the “transcriptional activation domain activity” value was 39400.
With “IFTELYFIMSSIWFSKVYYMFGFLFVCFLLMTLTCAAVTILLVYFLLCAENYH”, the “transcriptional activation domain activity” value was found to be 62000.
For the sequence “SGDADEDGNGHGTHCSGTIAGKKYGVAKKAHVYAVKVLRSNGSGSMSDVVKGV”, the “transcriptional activation domain activity” value was found to be 9640.
Next, “ESSSDEEEMTVAQKMAAQRKAEAAARRAKAHEEALAARSKDDLRSPICCILGH”: 53200; “GTLNAQVTICEYSSTGQPLNGQGGCYNLHPVFNWIHHCIMSIFLVFMIAWLPL”: 78500.
The result for “MRYRVNYMSTQGIHYSPFLPWIINIFKPNIMLICLFSFLPYFILFIMKSMLVL” reads 74600; that for “DHSDKIDKKRKDEDDSKRSKSDRKSKRDEERFSDSDKGARLDKDHSKSSRSKS”, 43500; that for “MLSLFSETGCTFLLVGLSIVVGVEKGSFLFYFVYLFTLYLYCGPILLGKLIFM”, 49800.
For the sequence “GAEAGAAVPGKRRNRRGRRGKKKKPGLANGAANGDGVEREDGENGEGEVPKEE”, the “transcriptional activation domain activity” value came to 52100.
“YTKTIATRNVANQTRLGKVRKSSVIVIAGNGHGRLGVGMAKSIEAPVATMAAT”: the “transcriptional activation domain activity” value amounted to 56400.
Take “MRGFYYYLFCLFAEFGIHGVLFHGGFFLLLFFFLSSSLWLALTRFRWPFPFVF”: the “transcriptional activation domain activity” value is 57800.
As for “NAPTADTDIATNLGKERNENFGMLNYNYEALLHFNDEHFNELNSIDPALISKY”, the “transcriptional activation domain activity” value stood at 107000.
“GSSAFGASGSSGGAFGQPAAQQQQSAFGGGGGLFGKPQGSSFGSTALATTAGQ”: the “transcriptional activation domain activity” value stood at 55800.
Take “MGWFTFAFWYPPHLLYFLFYLPPPPLFPSHSLEFFSFCICNLTMFILSTFFFA”: the “transcriptional activation domain activity” value was 50200.
Turning to “ESGSGSGSESGDSKDTAKAQGRGRKRGRESENHSSEDEEESVERKPRKARKFR”, the “transcriptional activation domain activity” value worked out at 36100.
In the case of “MPFGRRSAFGVFFIYHFFFVLHLIFTGFQSIFVYIGLSKLFFFWFGPFFFLFP”, the “transcriptional activation domain activity” value was determined as 61800.
Regarding “PDRPCYSAIVRISTSRLHFYECKLYAHAFFQGLRYFMYHWRWTTTLVLMSLFL”, the “transcriptional activation domain activity” value stood at 47200.
The result for “NLPSLIGIQLLSSMGEYVMLWLIFVGTVIYYAGWVTLVIDGFCRFLNIRCLVI” reads 56900.
On to “ADSGDEYVQDRRDGPAKGGKAPRREKDGRDEEGGRKKAAKKRKRKVQAQPEID”, for which the “transcriptional activation domain activity” value worked out at 30100.
Turning to “EDKAAEDGAAKKPKTTELPGGVKIQDMKVGSGPQAKPGKKIGMRYIGKLQGSN”, the “transcriptional activation domain activity” value was 30600.
The result for “NVLYSRLSILSSLITLSWFLTAHILEYTSIHTCRFSSPHIWWLTFGILCIMYL” reads 51600; that for “HARLKIIETATKAWSGALDADIKTKMAQSTAGFSGADVKVRAPHPLWDIHRPL”, 37200.
With “NQFSKPQVWSVGVFWWSIWLSCVWLGWWLCRLASFLAPRVLKFTIAIWMLVIY”, the “transcriptional activation domain activity” value amounted to 40800.
On to “SKWWLLGDSFEADILTFITLYQFVNAGFVFNYGYIFRKSWYRNYLLICIWALF”, for which the “transcriptional activation domain activity” value came out at 67200.
As for “SDDGGSSSEIIRVLGGPSIGDIRSRLIRLMPSAPPNSPLDAICRLLAYRLPVQ”, the “transcriptional activation domain activity” value amounted to 37600.
On to “MLWLVSWWLCLVVSNTLLFYLGEGGLVCFILCNSSFQVYLFLDLFIFLLFIHS”, for which the “transcriptional activation domain activity” value worked out at 39800.
The result for “VVPCLALVKKKSFFFVFFLLFLFLCTHLTACIAFSPFLFLFLFVFLFVALFSV” reads 40400; that for “MNPPIHSLSFLQSYICFMLIPPLPLMFIIVFHPLYFFWLFLSFLLLDYYLSLL”, 37800.
Next, “MSMFAMDFIIGHMVLFVLSPFTLVPYIDQLHSTMLFWLRPLLRLLRFYVHLYS”: 68200.
As to “QTVNFGWSDLPHDVYTHLSSDFENPFYFDGIFPTLVDYSPLIVSPPNFLTLEP”, the “transcriptional activation domain activity” value turned out to be 138000.
In the case of “ADASKWWLLGDSFEADVLTFVSLFQFVNSALIFNYGYIFRQAWYRNYLLVSVW”, the “transcriptional activation domain activity” value came out at 56700.
Next, “YQWVNYDLDTICMNFWTLKFLPDELPPIKHFSVVANDCKLFMYNVMGIIRFMS”: 82700; “MFCLRSWIPVLFFLLRTHASPIYLVLFISATYFLNRPCVYCSLLLFILVVALF”: 61100.
As for “QEDDPMPYLSWTPTVGRNSAFVDLTEEQREELGGIEYRSLKLLLIILVCYYVG”, the “transcriptional activation domain activity” value came out at 48300.
The result for “RSKVLRPFWLFLLALCYNLVHATALFYQVITLNVAVNSYSNALLTLLMSNQFV” reads 53500; that for “MLLTLLWLFFFFFFFFFPNIPPGVLFTFPSFDLLFASWFISSICASPFFAQFP”, 56100; that for “NLCELIYLDRLCGCCLFSMRSVVFIDLLSTLIQPVTVVYIVYLIYLVAANGAT”, 28000.
Take “MLYLCFLISFYSLCFLFSYFFNFVLDILFFYYFIIFLFSYFSIFLFSYFLICL”: the “transcriptional activation domain activity” value came out at 54300.
For “TEGEPETPADGDEEEGGEAEAEGGEEKKEEEEGWGLPVKKKKGKKGKGSNDAT”, the “transcriptional activation domain activity” value was 26900.
The result for “ETVEEPAPKRGKATRTKAAEPAPVEEAPKPAAKPRGRAAAKKATEPAAEAEVE” reads 35500; that for “AAGPGNNDLDDTDTDNQQFFLSDMNLNGSSVFENVFDDDDDDDDVETHSIVHS”, 28900.
“VCVCVWELVLVLVVWCCHCFSFVHSLHFLPWLLFSSPLVFLFPFPFFFFCLFL”: the “transcriptional activation domain activity” value stood at 68600.
Next, “SNRGSGGGGRATGAHSRRGRGSGDRGGRSSARSRSKSPGAEVAEAGEPAPAVP”: 17900; “PVKETETAAVPEVTAEPEAEAAKPAEAPKEEKKEEKKEAKSPKVSRRLSQRVE”: 58300.
For “VARVVNVFLWSMAVTFFLLVMHRITVYRAQQLYITTYCDPYFPIYPLRRILPQ”, the “transcriptional activation domain activity” value turned out to be 45400.
Take “MFYNFLFSLFSLFHMLLLHQSLVSLSYPFFLPGNFPLSVTIFIIAPLSLFWFI”: the “transcriptional activation domain activity” value is 48900.
Regarding “MEGGRGSRGSHENNELFFFLSLHSRFFFFYLFIYFSLLFFSFTIYFMVFFFFF”, the “transcriptional activation domain activity” value stood at 54600.
As to “LSRGSCFVFWIFFSVPPPLFPFIYSYIFFFSFLLWFSVFVSVVFSFFSFWFFF”, the “transcriptional activation domain activity” value is 55700.
Turning to “MVVLCPYNVLQKRERDAFLLALRRCLFAPINHPVYFSDVVFADIFTSYAKVLG”, the “transcriptional activation domain activity” value was 44000.
Regarding “LVYPIVYLYMDRFFMFVLCSPPSHVLGCWESVTVRTYVGILFPLLICCLFYVL”, the “transcriptional activation domain activity” value was 41100.
For the sequence “NKWLNVIQKFLKELDGRDKLMKTIQYFIKILLHYKMARAKHWSSLTSHLSMTR”, the “transcriptional activation domain activity” value was determined as 66400.
Consider “HRAGTSGQSLQQDDVLHVTRATLVELGNTSISTVIASLLVLLEDLARPYAAVA”, for which the “transcriptional activation domain activity” value is 36000.
As for “LHFFLAFIFLLSAYFHVRGRDLTYYGVWPSMVVWGLDRFLRLLRIGVFNFRYI”, the “transcriptional activation domain activity” value was 42000.
As for “MMFCLRSFIPLLLLPLPPSLSPLHLVLLLFLTYILNRPCIYCSFLLLILFVSS”, the “transcriptional activation domain activity” value came to 60600.
